The supplement of paper PMC10126150
± gives the standard deviation of the averaged measurements.

These sequences were tested on ATP (assay: switch fluorescence ratio, 500 uM ATP over buffer (Cy3 cluster intensity, sum of 5 cycles each) (fold (ratio)); higher = stronger signal-on switching upon ATP binding; sequences stand for … in TCGTCGGCAGCGTCAGATGTGTATAAGAGACAGTTTTTTTTTTTTTTTTTTTTTTTTT…TC). Settings: aptamer strand: ATP DNA aptamer (quencher-CACCTGGGGGAGTATTGCGGAGGAAGG + anchor), 100 nM annealed; ATP concentration: 500 uM.
How it was run: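 Cy3-labelled switching-strand clusters on a modified Illumina MiSeq flow-cell were annealed to 100 nM quencher-labelled ATP aptamer, imaged in selection buffer, then imaged after 15 min with 500 uM ATP at 22 °C. Five buffer/ATP cycles ran, with NaOH stripping and re-annealing between them. The fluorescence ratio is summed target-cycle over summed buffer-cycle Cy3 intensity per cluster, averaged per switch-domain sequence. Clusters outside 100-1000 RFU were excluded.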
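Note: ATP exposure 15 min at 22 °C before imaging.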

In order of falling switch fluorescence ratio:
1. AATTTCGCAA  3.4 ± 1.3
2. AATGGTTTGC  1.13 ± 0.23
3. AATTCCGGCG  1.12 ± 0.098
4. AATGGTGGCT  1.11 ± 0.099
5. AATTGACCCC  1.09 ± 0.023
6. AATGTTACGG  1.061 ± 0.0098
7. AATTCAGCCT  1.06 ± 0.035
8. AATTTACGTG  1.06 ± 0.011
9. AATGGGCAAG  1.05 ± 0.015
10. AATTACGGTG  1.05 ± 0.022
11. AATTCCGGGA  1.05 ± 0.068
12. AATTCCTCTT  1.05 ± 0.048
13. AATTACTTCT  1.042 ± 0.0026
14. AATTGACTTT  1.04 ± 0.011
15. AATTGCACGG  1.04 ± 0.016
16. AATTTAATGG  1.04 ± 0.053
17. AATTTGCCGT  1.04 ± 0.042
18. AATGGCTTTG  1.029 ± 0.0062
19. AATGGGGCCT  1.03 ± 0.02
20. AATGGGGCGG  1.03 ± 0.034
21. AATGTAGGCT  1.03 ± 0.027
22. AATTCATTTT  1.03 ± 0.059
23. AATTGGGCCT  1.034 ± 0.003
24. AATGGGATAG  1.02 ± 0.021
25. AATGTAGGAC  1.018 ± 0.0026
26. AATTAGGCGG  1.02 ± 0.02
27. AATTATTGGC  1.02 ± 0.061
28. AATGGTGGGT  1.01 ± 0.036
29. AATGTTATAT  1.01 ± 0.014
30. AATTATGTCA  1.01 ± 0.022
31. AATTCAGTTT  1.01 ± 0.033
32. AATTCCATTT  1.01 ± 0.023
33. AATTCGACGA  1.006 ± 0.0056
34. AATTCTTTTG  1.01 ± 0.043
35. AATTGCGTTT  1.01 ± 0.024
36. AATTGGAAGT  1.01 ± 0.04
37. AATTGGATCT  1.01 ± 0.027
38. AATTGGATGT  1.01 ± 0.021
39. AATTGTCATT  1.01 ± 0.019
40. AATTGTCGCG  1.01 ± 0.012
41. AATGGCGTTG  1 ± 0.057
42. AATGTTTTTT  1 ± 0.016
43. AATTAATTAA  1.004 ± 0.01
44. AATTGGTCAT  1 ± 0.018
45. AATTGTTGTG  1 ± 0.022
46. AATTGTTTAT  0.9998 ± 0.0092
47. AATTTAAATT  1 ± 0.037
48. AATGGTATTC  0.998 ± 0.025
49. AATGGTCGTG  0.998 ± 0.02
50. AATGGTGGTC  0.998 ± 0.012
51. AATGTTTCTG  0.998 ± 0.038
52. AATTGGGATT  0.998 ± 0.026
53. AATTTAGTGC  0.998 ± 0.07
54. AATGGTGGTT  0.996 ± 0.03
55. AATTTAGTAT  0.996 ± 0.022
56. AATGGATTTG  0.995 ± 0.013
57. AATGGGCGGA  0.995 ± 0.017
58. AATGTTCAGG  0.995 ± 0.021
59. AATTAATTTT  0.995 ± 0.038
60. AATGGTTGGT  0.994 ± 0.016
61. AATGTCGACG  0.994 ± 0.036
62. AATTAGTGCT  0.9938 ± 0.0069
63. AATGGCGGTA  0.9928 ± 0.0082
64. AATGTGCGTT  0.993 ± 0.04
65. AATTGGTGGG  0.9916 ± 0.0084
66. AATGGGAAGT  0.991 ± 0.019
67. AATGGTGGGG  0.9912 ± 0.0053
68. AATGTGTCCC  0.991 ± 0.041
69. AATGGGCGTC  0.9902 ± 0.0069
70. AATTCGTGTT  0.989 ± 0.021
71. AATGGGATTC  0.9881 ± 0.009
72. AATTAGACGT  0.988 ± 0.015
73. AATGGCCGGC  0.987 ± 0.014
74. AATGGGTATT  0.987 ± 0.026
75. AATGTTGAAG  0.987 ± 0.034
76. AATTGTAGGG  0.987 ± 0.03
77. AATGGTAATA  0.986 ± 0.025
78. AATTTAAAAA  0.986 ± 0.022
79. AATTGGTTCG  0.984 ± 0.012
80. AATGGATTTT  0.982 ± 0.013
81. AATTTGGGGC  0.982 ± 0.022
82. AATTCGCGGG  0.981 ± 0.0069
83. AATGGGCCCT  0.979 ± 0.047
84. AATTGTAGTT  0.9786 ± 0.0048
85. AATGTAAACG  0.978 ± 0.027
86. AATTAATGGT  0.978 ± 0.011
87. AATTTAAGGT  0.977 ± 0.022
88. AATGGGTTTT  0.976 ± 0.011
89. AATGTTTAAA  0.9764 ± 0.0016
90. AATGGTTATC  0.9753 ± 0.0046
91. AATTAGAATG  0.974 ± 0.029
92. AATTGTATTA  0.973 ± 0.041
93. AATTGTGGTT  0.97 ± 0.043
94. AATGGGGTTT  0.9689 ± 0.0085
95. AATGGGTCGT  0.9673 ± 0.0077
96. AATGTGGCGC  0.9643 ± 0.0043
97. AATTCAGATG  0.9623 ± 0.0077
98. AATTGCGTCA  0.9608 ± 0.0066
99. AATGTGTGCT  0.949 ± 0.0099
100. AATTTAGGTC  0.934 ± 0.028
